In the supplement of paper PMC9170038:

Tested on: MS2 coat protein
Experiment: apparent KD of MS2 coat protein; designed switch direction (-1 OFF switch, 1 ON switch): 1; higher = weaker reporter binding
Method in brief: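 The buffer was Tris-HCl pH 7.5 with KCl, MgCl2, BSA, DTT, tRNA and Tween-20. In it, SNAP-549-labelled MS2 coat protein was titrated in doubling steps from 0.7 or 1.5 nM to 3 µM over chip-bound RNA switches transcribed by stalled E. coli RNA polymerase on Illumina chips. Apparent KD is the per-design median over clusters of curve fits to normalised fluorescence.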

[1] = input ligand: microRNA oligo, concentration not stated
[2] = Eterna round: R95, input ligand: FMN 200 uM
[3] = Eterna round: R95, input ligand: microRNA oligo, concentration not stated
[4] = Eterna round: R95, input ligand: none

Sequence	apparent KD of MS2 coat protein [1]	apparent KD of MS2 coat protein [2]	apparent KD of MS2 coat protein [3]	apparent KD of MS2 coat protein [4]	apparent KD of MS2 coat protein (input ligand: FMN 200 uM)	apparent KD of MS2 coat protein (input ligand: none)
GAAAAACAUGAGGAUCACCCAUGUAAAAAAAUGGGAGGAUAUACAAAGACGAAAGUCAAAGUAGAAGGCCUGAAAG [same state 2] (Eterna round: R96, puzzle: Same State 1)	42.7 nM					
CUGAGCAGUCAAGGAUAUCACGUCGAAUAGACGUGAGAAGGUGACCAAUACAUGAGGAUCACCCAUGUAAUACAUGAAGCUCAG [SSNG1/12-A1] (Eterna round: R96, puzzle: Same State NG 1)	26 nM					
AACAAUCUAUCUGAGGAUAUCAUGAAAUAAACAUGAGGAUCACCCAUGUGUAGGAAAACUGCAUAUGAGAAGGCAGAUAGAUUGA [salish99_ss2_r3_036] (Eterna round: R96, puzzle: Same State 2)	465 nM					
GGUCCAGCCUGAGCUGGACAAAGGCAUGUACAUGAGGAUCACCCAUGUCAUGUACAAGCUUUUUGCUCGUCUUAAAA [JL mod - D87 - 3] (puzzle: Sensor for hsa-mir-208a)		168 nM	13.8 nM	220 nM		
GAGAAGAGGGACAAGGAUAUGUCAGGAGAGACAUGAGGAUCACCCAUGUAGAGGUUGGAGGAGAGACAGAAGGUGUCGGGAGCGA [JR_SS2_Sub013] (puzzle: Same State 2)		86.8 nM	73.7 nM	109 nM		
CUAUCUACAGGUUGCAGUGCUCGUCUUAUACAUGAGGAUCACCCAUGUUAUAGCCCGGUGCUUGCGCUGGGCUGAUU [JL ViennaUCT Tearor mod 2] (puzzle: Sensor for hsa-mir-208a)		36.4 nM	16.4 nM	43 nM		
CCGAAAUAUGGAGGAUAUGGAGCCUUAUUGGCUCCAGAAGGUCAAAACAUGAGGAUCACCCAUGUAUCGGCGGUCAAUAGACCG [Eli NG1ss - 73] (Eterna round: R96, puzzle: Same State NG 1)	81.7 nM				123 nM	171 nM
CUGUCUACAGGUGUCUUUGCUCGUUUUAUACAUGAGGAUCACCCAUGUUAUAGCCCGGUGCUUGCGCUGGGCUGAUU [JL ViennaUCT Tearor mod 8] (puzzle: Sensor for hsa-mir-208a)		66.8 nM	14.1 nM	63 nM		
AACAUGUGGUGUCACAUGAGGAUCACCCAUGUGGUAAAAGCUGAGGAUAUAAAGAGAAACAUGAAUUAGAAGGUAGGAUCACAA [AK SSNG3-V2-19] (Eterna round: R96, puzzle: Same State NG 3)	138 nM				177 nM	127 nM
AGUCCAGCCUGAGCUGGACAAAAGCAUGUACAUGAGGAUCACCCAUGUCAUGUAUAAGCUUUUUGCUCGUUUUAAUA [Zipper 49 - 16] (puzzle: Sensor for hsa-mir-208a)		19.9 nM	10.7 nM	19 nM		
GUAGCAUACCGAGGAUAUUCACAUGAGGAUCACCCAUGUAUUAAUAGGCCACAUUAGUGGCCUUGGGAGAAGGCGGAAUGCUAC [Xeonanis - 20 Mod48] (Eterna round: R96, puzzle: Same State NG 2)	11 nM				10.8 nM	14.6 nM
GCCAUCGAAUGAGGAUAUGGCACCGUUUCGGUGCCAGAAGGCAUGUCAAUUGACAUGAGGAUCACCCAUGUAUUAUCGAUGGCA [JL Fiskers NG1ss - 33 mod 5] (Eterna round: R96, puzzle: Same State NG 1)	712 nM				119 nM	1640 nM
AUUGUUUAUGCAGGAUAUGAUUAACAUGAGGAUCACCCAUGUGGUGUUGUGAGUAAGGAGAGUGAUCAGAAGGGCAUUUUUUUU [JMF's solution 69] (Eterna round: R96, puzzle: Same State NG 2)	273 nM				735 nM	411 nM
